Article PMC9433702, “Functional characterization of a catalytically promiscuous tryptophan decarboxylase from camptothecin-producing Camptotheca acuminata” (Frontiers in Plant Science, 2022)

Substrate: N[C@@H](Cc1c[nH]c2ccccc12)C(=O)O
Assay: HPLC-DAD quantitation of tryptamine, non-linear regression
Assay type: biochemical, Camptotheca acuminata
Conditions: 4 μM PLP, 0.16 μM enzyme, 50 mM phosphate buffer pH 7.6, 37°C

B1: CaTDC3 (Camptotheca acuminata) (protein)
chain: MGSLDSNYDTESPASVGQFNPLDPEEFRKQAHCIVDFIADYYKNIESYPVLSQVDPGYLHSRLPKNAPYRSEPFESILKDVQKDIIPGMTHWMSPNFFAYFPATVSSAAFVGEMLCTCFNSVGFNWLASPAATELEMVVIDWLANMLKLPKSFMFSGTGGGVLQGTTSEAILCTLIAARDRALEIVGVKNFNKLVVYGSDQTHSTYAKACKLAGILPCNIRSIPTTADSNFSVSPLLLRRAIEADKAAGMVPLYICATVGTTSTTAIDPLSSLADVANDYGVWFHVDAAYAGSACICPEFRHYLDGIERADSLSLSPHKWLLSYLDCCCLWVKSPSLLVKALSTDPEYLKNQPSESKSVVDYKDWQVGTGRRFKALRLWFVMRSYGVANLQSHIRTDVQMAKMFEGFVKSDPRFEILVPRVFSLVCFRLNPISGSDPTGTEALNRKLLDWVNSTGRVYMTHTKVGGIYMLRFAVGATLTEKRHVSSAWKLIKEGADVLLKED
notes: homodimer by homology model
In the case of B1, the Km is reported as 48 ± 2 µM and the kcat is reported as 25.6 min^–1.
